Here are results for 2 molecules from article PMC6103731 (RNA Biology, 2017).

Series [1] concerns the molecule itself. In words: crystal structure.
Series [2] deals with T1, EC1-2 domain of VE-cadherin.
T1 sequence (P33151 whole entry, species assumed, looked up): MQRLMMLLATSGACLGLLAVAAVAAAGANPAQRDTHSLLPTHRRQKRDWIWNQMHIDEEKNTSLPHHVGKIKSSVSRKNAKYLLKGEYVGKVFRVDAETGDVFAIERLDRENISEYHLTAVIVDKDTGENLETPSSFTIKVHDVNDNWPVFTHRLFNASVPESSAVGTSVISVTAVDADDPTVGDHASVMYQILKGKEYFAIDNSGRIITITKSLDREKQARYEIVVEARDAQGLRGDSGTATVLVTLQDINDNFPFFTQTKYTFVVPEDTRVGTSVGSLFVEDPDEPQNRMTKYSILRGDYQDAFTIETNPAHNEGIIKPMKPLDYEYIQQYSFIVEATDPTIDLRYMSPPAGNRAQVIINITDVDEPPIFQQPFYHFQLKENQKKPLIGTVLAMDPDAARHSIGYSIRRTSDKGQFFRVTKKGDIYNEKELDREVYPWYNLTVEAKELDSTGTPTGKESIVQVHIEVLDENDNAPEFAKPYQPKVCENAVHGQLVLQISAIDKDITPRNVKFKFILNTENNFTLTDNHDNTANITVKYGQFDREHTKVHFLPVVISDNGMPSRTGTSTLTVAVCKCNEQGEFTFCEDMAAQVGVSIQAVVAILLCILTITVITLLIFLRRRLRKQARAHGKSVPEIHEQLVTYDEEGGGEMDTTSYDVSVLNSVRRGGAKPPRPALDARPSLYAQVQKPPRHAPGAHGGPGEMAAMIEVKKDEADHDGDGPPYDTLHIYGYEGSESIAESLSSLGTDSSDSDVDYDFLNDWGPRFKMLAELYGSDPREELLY
In words: SPR. For orientation: SPR reads the build-up and loss of mass on a sensor chip optically.

B1: human H130R T2-TrpRS (domain or fragment, UniProt P23381 97-471, looked up)
chain: GIDYDKLIVRFGSSKIDKELINRIERATGQRPHRFLRRGIFFSHRDMNQVLDAYENKKPFYLYTGRGPSSEAMHVGHLIPFIFTKWLQDVFNVPLVIQMTDDEKYLWKDLTLDQAYSYAVENAKDIIACGFDINKTFIFSDLDYMGMSSGFYKNVVKIQKHVTFNQVKGIFGFTDSDCIGKISFPAIQAAPSFSNSFPQIFRDRTDIQCLIPCAIDQDPYFRMTRDVAPRIGYPKPALLHSTFFPALQGAQTKMSASDPNSSIFLTDTAKQIKTKVNKHAFSGGRDTIEEHRQFGGNCDVDVSFMYLTFFLEDDDKLEQIRKDYTSGAMLTGELKKALIEVLQPLIAEHQARRKEVTDEIVKEFMTPRKLSFDFQ
On to B1, for which the “stoichiometry N” value in series [1] was determined as 2. In addition, in series [2], the fold stronger binding affinity than WT T2-TrpRS is > 50 fold and the kon was 2.71e+07 M⁻¹ s⁻¹.

B2: wild-type human T2-TrpRS (domain or fragment)
chain: GIDYDKLIVRFGSSKIDKELINRIERATGQRPHHFLRRGIFFSHRDMNQVLDAYENKKPFYLYTGRGPSSEAMHVGHLIPFIFTKWLQDVFNVPLVIQMTDDEKYLWKDLTLDQAYSYAVENAKDIIACGFDINKTFIFSDLDYMGMSSGFYKNVVKIQKHVTFNQVKGIFGFTDSDCIGKISFPAIQAAPSFSNSFPQIFRDRTDIQCLIPCAIDQDPYFRMTRDVAPRIGYPKPALLHSTFFPALQGAQTKMSASDPNSSIFLTDTAKQIKTKVNKHAFSGGRDTIEEHRQFGGNCDVDVSFMYLTFFLEDDDKLEQIRKDYTSGAMLTGELKKALIEVLQPLIAEHQARRKEVTDEIVKEFMTPRKLSFDFQ
Consider B2, for which the kon in series [2] is 176000 M⁻¹ s⁻¹.

As usually defined, the stoichiometry N is a count of units in the complex or per binding partner. As a reminder, the kon is a measure of how fast the partners come together. Low values mean slower complex formation, high ones faster complex formation.
